Assay results published in patent US20210107983A1 (Boehringer Ingelheim, published 2021).
Numbering of substitutions follows the chain as printed. One block for each binder: values may come before it.

Columns and labels:
[1] = biological target: T1, Cyno CD3 E+G HuFc-6xHis (cynomolgus monkey); test: ratio of SPR KDs cyno/human
T1 construct: also called CyCD3E+G-hFc; cyCD3
Experimental: (§1) About 700 RU of the B7H6/CD3 binding protein was captured on flow cell 2 of the Protein A/G surface for 60 s at a flow rate of 10 μL/min. The analytes HuB7H6, CyB7H6 and HuB7H1 were injected across both flow cells over captured B7H6/CD3 binding protein for 300 s at a flow rate of 30 μL/min with a dissociation of 1200 s. The concentrations of HuB7H6 and CyB7H6 were 0 nM, 6.25 nM, 12.5 nM, 25 nM, 50 nM and 100 nM. The concentrations of HuB7H1 were 0 nM and 1 μM. The surface was regenerated by injecting 10 mM glycine-HCl, pH 1.5 for 20 s at a flow rate of 30 μL/min across both flow cells.
(§2) The reference flow cell 1 (interactions with sensor surface) and blank (HBS-EP+ or 0 nM analyte) were subtracted from the raw data.
(§3) The B7H6/CD3 binding protein analyte was injected horizontally over the immobilized surface for 300 s at a flow rate of 30 μL/min with a dissociation of 600 s. The concentrations of the B7H6/CD3 binding protein used were 0 nM, 1.2 nM, 3.7 nM, 11.1 nM, 33.3 nM and 100 nM.

[2] = biological target: T2, Cyno B7H6-His (cynomolgus monkey); test: ratio of SPR KDs cyno/human
T2 construct: also called CyB7H6; cyB7-H6
T2 chain: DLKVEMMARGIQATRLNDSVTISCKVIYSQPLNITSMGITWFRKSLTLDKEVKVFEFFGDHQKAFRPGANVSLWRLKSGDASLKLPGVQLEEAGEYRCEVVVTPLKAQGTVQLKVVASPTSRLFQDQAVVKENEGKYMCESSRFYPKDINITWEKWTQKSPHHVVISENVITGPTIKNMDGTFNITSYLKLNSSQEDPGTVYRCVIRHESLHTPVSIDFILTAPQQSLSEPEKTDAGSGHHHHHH
Experimental: as §1, §2, §3

[3] = biological target: T1, Cyno CD3 E+G HuFc-6xHis; test: SPR, CD3E+G-hFc immobilized, binder analyte
Experimental: (§4) To determine the affinity of the B7H6/CD3 binding protein to human and cyno CD3E+G-hFc, the experiment was performed on a Bio-Rad ProteOn™ XPR36 instrument. Briefly, HuCD3E+G-hFc and CyCD3E+G were amine-coupled on a ProteOn™ GLM sensor chip (Bio-Rad) and the B7H6/CD3 binding protein was flowed over the immobilized surface. The running buffer for this experiment and all serial dilutions were prepared in HBS-EP+. The GLM sensor chip was normalized according to Bio-Rad's recommendations. The sensor chip was activated with an equal mixture of EDC/s-NHS in the horizontal direction for 300 s at a flow rate of 30 μL/min HuCD3E+G-hFc was immobilized in the vertical direction at 0.4 μg/mL, 0.2 μg/mL and 0.1 μg/mL in 10 mM acetate pH 4.5 to L1, L2 and L3, respectively, for 300 s at a flow rate of 30 μL/min resulting in about 100 RU of HuCD3E+G-hFc on L1, 40 RU of HuCD3E+G-hFc on L2 and 0 RU of HuCD3E+G-hFc on L3. CyCD3E+G-hFc was immobilized in the vertical direction at 0.4 μg/mL, 0.2 μg/mL and 0.1 μg/mL in 10 mM acetate pH 4.5 to L4, L5 and L6, respectively, for 300 s at a flow rate of 30 μL/min resulting in about 385 RU of […], 170 RU of CyCD3E+G-hFc on L5 and 50 RU of CyCD3E+G-hFc on L6. The sensor chip was deactivated with 1M ethanolamine-HCl in the horizontal direction for 300 s at a flow rate of 30 μL/min.
as §3
(§5) The interspot (interactions with sensor surface) and blank (HBS-EP+ or 0 nM analyte) were subtracted from the raw data.

[4] = biological target: T3, Human CD3 E+G HuFc-6xHis (human); test: SPR, CD3E+G-hFc immobilized, binder analyte
T3 construct: also called HuCD3E+G-hFc; huCD3
Experimental: as §4, §3, §5

[5] = biological target: T4, trypsin inhibitor from Glycine max soybean (Glycine max (soybean)); test: SPR, 1 µM binder over immobilized trypsin inhibitor
T4 construct: unrelated negatively charged protein, amine-coupled to the chip
Experimental: (§6) The experiment was performed on a Biacore® T200 SPR system (GE Healthcare Life Sciences). The dilution, surface preparation, and binding experiments were performed at 25° C. in 1×HBS-EP buffer prepared from 10×HBS-EP. The flow rate for both the immobilization protocol and binding experiment was at 5 μL/min.
(§7) To prepare the surface for the non-specific binding experiment, chicken egg white lysozyme and trypsin inhibitor from Glycine max soybean were coupled manually to a Biacore® series S CM5 sensor chip (GE Healthcare sciences) with the surface density of 3000-5000 RU using the amine coupling kit according to the manufacture instructions. Samples were prepared at 1 μM in 1×HBS-EP buffer. The samples were injected over activated surfaces with a 10 min association and 15 min dissociation. The data was collected using Biacore® T200 Control Software version 2.0.1 and analyzed using Biacore® T200 Evaluation Software version 3.0 (GE Healthcare Life Sciences).

[6] = biological target: T5, chicken egg white lysozyme (chicken, UniProt P00698 19-147); test: SPR, 1 µM binder over immobilized lysozyme
T5 construct: unrelated positively charged protein, amine-coupled to the chip; also called Lysozyme (positive)
Experimental: as §6, §7

[7] = biological target: T2, Cyno B7H6-His; test: SPR, binder captured on Protein A/G, B7H6 analyte
Experimental: (§8) To determine the affinity of human and cyno B7H6 and human B7H1 to B7H6/CD3 binding proteins, the experiment was performed on a Biacore™ 8K instrument (GE Healthcare Life Sciences). Briefly, the B7H6/CD3 binding protein was captured via Protein A/G. The running buffer for this experiment and all serial dilutions were prepared in HBS-EP+. The CM5 sensor chip was activated with an equal mixture of EDC/NHS across both flow cells for 420 s at a flow rate of 10 μL/min and immobilized with recombinant Protein A/G (50 μg/ml in 10 mM NaOAc, pH 4.5) across all flow cells for 420 s at a flow rate of 10 μL/min resulting in about 2500 RU of Protein A/G on the surface. The sensor chip was deactivated with 1M ethanolamine-HCl across all flow cells for 420 s at a flow rate of 10 μL/min.
as §1, §2

[8] = biological target: T6, Human B7H1 (human, UniProt Q9NZQ7 20-239); test: SPR, binder captured on Protein A/G, HuB7H1 analyte
T6 construct: also called HuB7H1; huB7-H1
Experimental: as §8, §1, §2

T5 sequence (P00698 19-147): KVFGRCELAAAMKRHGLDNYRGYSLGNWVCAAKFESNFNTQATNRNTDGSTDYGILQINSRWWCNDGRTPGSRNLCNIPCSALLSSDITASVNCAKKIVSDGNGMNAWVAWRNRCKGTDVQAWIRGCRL
T4 sequence (P01070 25-205): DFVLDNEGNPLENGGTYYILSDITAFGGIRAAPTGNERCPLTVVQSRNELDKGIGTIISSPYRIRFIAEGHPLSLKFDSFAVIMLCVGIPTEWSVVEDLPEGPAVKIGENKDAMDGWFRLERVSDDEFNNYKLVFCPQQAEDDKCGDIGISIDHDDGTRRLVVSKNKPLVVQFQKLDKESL
T3 sequence (chain, as listed by the source limits assumed): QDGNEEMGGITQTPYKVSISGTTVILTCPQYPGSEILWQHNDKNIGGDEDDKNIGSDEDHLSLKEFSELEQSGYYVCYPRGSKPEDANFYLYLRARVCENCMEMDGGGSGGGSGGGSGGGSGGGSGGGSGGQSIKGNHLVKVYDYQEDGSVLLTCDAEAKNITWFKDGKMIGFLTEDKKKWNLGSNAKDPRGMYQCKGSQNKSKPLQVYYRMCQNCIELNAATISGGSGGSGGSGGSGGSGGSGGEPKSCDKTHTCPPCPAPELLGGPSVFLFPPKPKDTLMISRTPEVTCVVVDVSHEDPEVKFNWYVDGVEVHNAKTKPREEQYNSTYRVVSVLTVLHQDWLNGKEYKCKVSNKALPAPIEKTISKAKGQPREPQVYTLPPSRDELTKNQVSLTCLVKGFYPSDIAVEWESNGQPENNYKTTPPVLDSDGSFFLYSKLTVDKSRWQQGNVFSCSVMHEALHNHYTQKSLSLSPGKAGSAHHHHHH
T6 sequence (Q9NZQ7 other isoform, or with tags, fused parts or gaps limits assumed): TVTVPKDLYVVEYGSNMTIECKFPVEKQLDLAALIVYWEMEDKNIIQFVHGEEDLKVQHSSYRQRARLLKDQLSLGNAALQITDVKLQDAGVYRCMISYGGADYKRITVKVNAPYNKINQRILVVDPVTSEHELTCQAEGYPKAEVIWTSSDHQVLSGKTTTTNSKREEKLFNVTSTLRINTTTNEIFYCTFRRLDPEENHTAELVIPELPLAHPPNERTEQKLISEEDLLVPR
T1 sequence (chain, as listed by the source limits assumed): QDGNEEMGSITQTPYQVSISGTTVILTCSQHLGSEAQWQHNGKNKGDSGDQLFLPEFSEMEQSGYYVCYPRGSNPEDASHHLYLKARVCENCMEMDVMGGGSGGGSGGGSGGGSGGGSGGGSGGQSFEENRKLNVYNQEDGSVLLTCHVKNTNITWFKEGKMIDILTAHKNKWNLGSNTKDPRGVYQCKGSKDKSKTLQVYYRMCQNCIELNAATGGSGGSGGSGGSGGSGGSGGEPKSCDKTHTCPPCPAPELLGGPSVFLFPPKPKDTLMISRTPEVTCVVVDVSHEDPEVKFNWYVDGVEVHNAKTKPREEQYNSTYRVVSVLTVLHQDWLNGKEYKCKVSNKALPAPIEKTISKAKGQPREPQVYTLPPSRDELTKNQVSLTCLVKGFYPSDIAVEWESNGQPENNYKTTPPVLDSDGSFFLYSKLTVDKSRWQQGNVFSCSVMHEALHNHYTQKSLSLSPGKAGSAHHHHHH

cy/hu CD3 [1]: 1.5 | cy/hu B7-H6 [2]: 0.9 | Kd [3]: 7.1 nM | Kd [4]: 4.8 nM | Non-specific binding (RU) [5]: 26.4 RU | Non-specific binding (RU) [6]: 12.4 RU | Kd [7]: 1.1 nM | binding result [8]: no binding (tested: 1 µM)
B1: B7H6#14/CD3#3 (bispecific antibody, human IgG1, kappa, L234A L235A)
chain 1: DIQMTQSPSSLSASVGDRVTITCKASQNVGKYVAWYQQKPGKAPKSLIYSASNRYDGVPSRFSGSGSGTDFTLTISSLQPEDFATYFCQQYISYPLTFGAGTKLEIKRTVAAPSVFIFPPSDEQLKSGTASVVCLLNNFYPREAKVQWKVDNALQSGNSQESVTEQDSKDSTYSLSSTLTLSKADYEKHKVYACEVTHQGLSSPVTKSFNRGECGGGGSEGKSSGSGSESKSTEGKSSGSGSESKSTGGGGSQVQLVQSGAEVKKPGASVKVSCKASGYTFTNYWMNWMKQAPGQGLEWIGGIYLNGDSTDYNEKFKGKVTMTVDTSTSTVYMELSSLRSEDTAVYYCTRRGDYFGDFWGQGTLVTVSSASTKGPSVFPLAPSSKSTSGGTAALGCLVKDYFPEPVTVSWNSGALTSGVHTFPAVLQSSGLYSLSSVVTVPSSSLGTQTYICNVNHKPSNTKVDKRVEPKSCDKTHTCPPCPAPEAAGGPSVFLFPPKPKDTLMISRTPEVTCVVVDVSHEDPEVKFNWYVDGVEVHNAKTKPREEQYNSTYRVVSVLTVLHQDWLNGKEYKCKVSNKALPAPIEKTISKAKGQPREPQVYTLPPSREEMTKNQVSLWCLVKGFYPSDIAVEWESNGQPENNYKTTPPVLDSDGSFFLYSKLTVDKSRWQQGNVFSCSVMHEALHNHYTQKSLSLSPG
chain 2: not shown
notes: scFab-Fc heterodimer

cy/hu B7-H6 [2]: 3.1 | Kd [4]: 4 nM | Non-specific binding (RU) [5]: 40.3 RU | Non-specific binding (RU) [6]: 8.2 RU | Kd [7]: 5.1 nM | binding result [8]: no binding (tested: 1 µM)
B2: B7H6#19/CD3#1 (bispecific antibody, human IgG1, kappa, lambda, L234A L235A)
chain 1: B1 chain 1 with A84T, F87Y, N283S, M289V, I300M, N306S, D308E, V320A
chain 2: EAVVTQEPSLTVSPGGTVTLTCRSSTGAVTTSNYANWVQEKPGQLPRGLIGGTNKRAPWVPARFSGSLLGGKAALTLSGAQPEDEAEYFCALWYSNLWVFGGGTKLTVLGQPKAAPSVTLFPPSSEELQANKATLVCLISDFYPGAVKVAWKADGSPVNTGVETTTPSKQSNNKYAASSYLSLTPEQWKSHRSYSCQVTHEGSTVEKTVAPAECSGGGGSEGKSSGSGSESKSTEGKSSGSGSESKSTGGGGSEVQLVESGGGLVQPGGSLKLSCAASGFTFNTYAMNWVRQAPGKGLEWVARIRSKYNNYATYYADSVKDRFTISRDDSKNTAYLQMNNLKTEDTAVYYCVRHGNFGNSYVSWFAYWGQGTLVTVSAASTKGPSVFPLAPSSKSTSGGTAALGCLVKDYFPEPVTVSWNSGALTSGVHTFPAVLQSSGLYSLSSVVTVPSSSLGTQTYICNVNHKPSNTKVDKRVEPKSCDKTHTCPPCPAPEAAGGPSVFLFPPKPKDTLMISRTPEVTCVVVDVSHEDPEVKFNWYVDGVEVHNAKTKPREEQYNSTYRVVSVLTVLHQDWLNGKEYKCKVSNKALPAPIEKTISKAKGQPREPQVYTLPPSREEMTKNQVSLSCAVKGFYPSDIAVEWESNGQPENNYKTTPPVLDSDGSFFLVSKLTVDKSRWQQGNVFSCSVMHEALHNRFTQKSLSLSPG
notes: scFab-Fc heterodimer, one B7H6 chain and one CD3 chain

cy/hu B7-H6 [2]: 4.6 | Kd [4]: 4 nM | Non-specific binding (RU) [5]: 48.4 RU | Non-specific binding (RU) [6]: 9.8 RU | Kd [7]: 4.9 nM | binding result [8]: no binding (tested: 1 µM)
B3: B7H6#20/CD3#1 (bispecific antibody, human IgG1, kappa, lambda, L234A L235A)
chain 1: B1 chain 1 with G57A, A84T, F87Y, N283S, M289V, I300M, N306S, V320A
chain 2: B2 chain 2
notes: as for B2

cy/hu B7-H6 [2]: 1.7 | Kd [4]: 7.8 nM | Non-specific binding (RU) [5]: 43.5 RU | Non-specific binding (RU) [6]: 7.9 RU | Kd [7]: 3.1 nM | binding result [8]: no binding (tested: 1 µM)
B4: B7H6#24/CD3#1 (bispecific antibody, human IgG1, kappa, lambda, L234A L235A)
chain 1: B1 chain 1 with G57A, A84T, F87Y, K290R, I300M, N306S, K319R
chain 2: B2 chain 2
notes: as for B2

cy/hu B7-H6 [2]: 0.4 | Kd [4]: 4.4 nM | Non-specific binding (RU) [5]: 42 RU | Non-specific binding (RU) [6]: 8.1 RU | Kd [7]: 1.4 nM | binding result [8]: no binding (tested: 1 µM)
B5: B7H6#21/CD3#1 (bispecific antibody, human IgG1, kappa, lambda, L234A L235A)
chain 1: B1 chain 1 with N283S, N306S, D308E
chain 2: B2 chain 2
notes: as for B2
